PMC10914751

Target: Plk4 CPB (in vitro binding, Supplementary Fig. 3i)
Sequence (O00444 whole entry): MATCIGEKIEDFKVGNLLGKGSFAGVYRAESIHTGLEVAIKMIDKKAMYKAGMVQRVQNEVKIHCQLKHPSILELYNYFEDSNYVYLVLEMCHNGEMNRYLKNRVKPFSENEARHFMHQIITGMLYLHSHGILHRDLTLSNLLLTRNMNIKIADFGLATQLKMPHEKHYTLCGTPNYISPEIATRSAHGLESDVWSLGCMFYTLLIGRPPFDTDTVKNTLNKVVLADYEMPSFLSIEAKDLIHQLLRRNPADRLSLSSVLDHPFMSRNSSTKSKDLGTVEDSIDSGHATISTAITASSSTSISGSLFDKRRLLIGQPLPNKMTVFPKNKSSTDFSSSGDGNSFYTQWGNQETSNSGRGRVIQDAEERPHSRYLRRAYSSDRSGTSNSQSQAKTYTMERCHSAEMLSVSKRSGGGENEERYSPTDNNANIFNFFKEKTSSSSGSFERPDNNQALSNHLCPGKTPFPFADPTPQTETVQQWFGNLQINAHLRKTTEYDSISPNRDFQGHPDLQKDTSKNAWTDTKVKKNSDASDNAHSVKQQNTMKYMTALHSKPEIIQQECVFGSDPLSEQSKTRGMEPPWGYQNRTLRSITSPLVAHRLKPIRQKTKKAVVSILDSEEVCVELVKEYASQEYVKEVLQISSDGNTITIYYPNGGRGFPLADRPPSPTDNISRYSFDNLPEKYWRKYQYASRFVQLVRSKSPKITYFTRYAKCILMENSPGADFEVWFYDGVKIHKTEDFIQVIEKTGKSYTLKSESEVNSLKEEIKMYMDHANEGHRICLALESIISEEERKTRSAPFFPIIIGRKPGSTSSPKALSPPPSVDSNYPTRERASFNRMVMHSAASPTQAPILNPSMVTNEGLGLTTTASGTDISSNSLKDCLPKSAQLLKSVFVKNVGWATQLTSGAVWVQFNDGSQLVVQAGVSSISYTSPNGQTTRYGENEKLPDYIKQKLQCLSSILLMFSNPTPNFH

recombinant Vpr (from UniProt P12520 1-96) (natural protein)
in vitro kinase assay: trans-autophosphorylation of the SSTT motif (S698, S700, T704, T707) of GST-Plk4(1–836; ∆PB3) in the presence of Vpr•VprBP, but not Vpr(1–79)•VprBP; anti-p-SSTT immunoblot: 1.8 fold
